Experimental data reported in US7521540B2, “CYR61 compositions and methods” (Munin Corporation, priority 1996, dated 2009).

Legend:
[1] = tested on: Human Microvascular Endothelial Cells; test: In vitro migration assay for angiogenesis inhibitors; type: cell-based; conditions: bFGF 10 ng/ml; Cyr61; IGF-II
Experimental: As in the preceding Example, human microvascular endothelial cells (Clonetics) were used. In one series of assays, several carbohydrates and carbohydrate derivatives were analyzed. These compounds included 10 mM mannose, 10 mM mannose-6-phosphate, and 10 mM galactose. […] Cyr61 plus galactose induced the migration of approximately 74 cells per set of three high-powered fields. […] The angiogenic activity of basic FGF (10 ng/ml) was also tested, as described above, with and without mannose-6-phosphate. In the presence of 10 mM mannose-6-phosphate, bFGF induced 51 cells per set of three high-powered fields to migrate; in its absence, bFGF induced the migration of approximately 52 cells. […] The effect of mannose-6-phosphate on IGF II activity was anticipated because mannose-6-phosphate is known to compete with IGF II for their common receptor (the IGF II receptor). […] Moreover, because there is an essentially perfect correlation between the in vitro migration assay and the in vivo angiogenesis assay, described below, mannose-6-phosphate has been identified as an inhibitor of angiogenesis based on the results of the assay disclosed herein. Accordingly, the invention contemplates a method of inhibiting angiogenesis comprising the step of administering an inhibitor the angiogenic activity of Cyr61 such as mannose-6-phosphate. […]

[2] = tested on: HUVE cells; test: Gel matrix invasion and tube formation; type: cell-based, human; conditions: collagen or fibrin gels
Experimental: The end product of in vitro angiogenesis is a well-defined network of capillary-like tubes. When cultured on gel matrices, e.g., collagen, fibrin, or Matrigel gels, endothelial cells must first invade the matrix before forming mature vessels.
In some wells, Cyr61 was mixed into the gel matrix before gelation (final concentration 10 μg/ml), while in other wells, Cyr61 was not in the gel matrix but was added as part of the nutrient medium (similar range of concentrations as in the matrix) after the cells reached confluency. HUVE cells were seeded onto the gel matrix surface at 5×10^4 cells per well in Ham's F12K medium [GIBCO-BRL, Inc.] containing 10% fetal bovine serum, 100 μg/ml heparin, and 30 μg/ml endothelial cell growth factor. When the cells reached confluency, the medium was removed, the cells were rinsed with PBS, and fresh medium without endothelial cell growth factor was supplied. Some cultures received purified recombinant Cyr61, while others received Cyr61 and polyclonal anti-Cyr61 antibodies. […]
Invasion of the gel matrix was quantified about 4-7 days after treatment of the confluent cultures. […] Invasion was quantified by measuring the total length of all cell cords that penetrated beneath the surface monolayer. Results were expressed as the mean length in microns per field for at least 3 randomly selected fields from each of at least 3 separate experiments. […]

B1: Cyr61: Cysteine-rich ECM signaling protein; murine sequence SEQ ID NO:2, recombinant from Baculovirus-infected Sf9 cells (protein, listed as Mus musculus)
chain: MSSSTFRTLAVAVTLLHLTRLALSTCPAACHCPLEAPKCAPGVGLVRDGCGCCKVCAKQLNEDCSKTQPCDHTKGLECNFGASSTALKGICRAQSEGRPCEYNSRIYQNGESFQPNCKHQCTCIDGAVGCIPLCPQELSLPNLGCPNPRLVKVSGQCCEEWVCDEDSIKDSLDDQDDLLGLDASEVELTRNNELIAIGKGSSLKRLPVFGTEPRVLFNPLHAHGQKCIVQTTSWSQCSKSCGTGISTRVTNDNPECRLVKETRICEVRPCGQPVYSSLKKGKKCSKTKKSPEPVRFTYAGCSSVKKYRPKYCGSCVDGRCCTPLQTRTVKMRFRCEDGEMFSKNVMMIQSCKCNYNCPHPNEASFRLYSLFNDIHKFRD
Question: How did the “migrating cells, chemoattractant without mannose-6-phosphate” value [1] turn out when B1 was run?
Answer: The value was “approximately 48 cells”.

Question: What about the “matrix invasion and tube formation” value [2] of the same molecule?
Answer: The value was “induce matrix invasion and tube formation”.
